Legend:
caspase 3 = caspase 3 (UniProt P42574)
[1] = molecular target: rKgp: mature recombinant Kgp catalytic domain with the ABM1 motif (Gly681-Ala710) deleted (Porphyromonas gingivalis W50)
papain = papain (UniProt P00784)
[2] = molecular target: T1, mature RgpB from P. gingivalis HG66 (Porphyromonas gingivalis HG66, UniProt P95493 230-736); assay: enzyme inhibition kinetics; conditions: both partners purified
T1 chain: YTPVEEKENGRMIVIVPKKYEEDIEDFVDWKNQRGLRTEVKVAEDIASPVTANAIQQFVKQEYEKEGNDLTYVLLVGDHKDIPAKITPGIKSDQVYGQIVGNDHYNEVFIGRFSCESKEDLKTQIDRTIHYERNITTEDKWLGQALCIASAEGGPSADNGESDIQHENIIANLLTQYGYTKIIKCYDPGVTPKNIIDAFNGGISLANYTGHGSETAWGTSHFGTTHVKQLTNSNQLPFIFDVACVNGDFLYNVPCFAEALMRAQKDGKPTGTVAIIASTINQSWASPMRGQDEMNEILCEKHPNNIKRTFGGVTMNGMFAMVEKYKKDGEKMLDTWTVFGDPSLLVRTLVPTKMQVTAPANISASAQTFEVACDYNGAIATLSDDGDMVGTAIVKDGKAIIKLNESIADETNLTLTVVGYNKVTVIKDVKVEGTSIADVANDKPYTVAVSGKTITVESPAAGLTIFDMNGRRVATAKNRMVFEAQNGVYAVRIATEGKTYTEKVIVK

Chain of papain (P00784 134-345): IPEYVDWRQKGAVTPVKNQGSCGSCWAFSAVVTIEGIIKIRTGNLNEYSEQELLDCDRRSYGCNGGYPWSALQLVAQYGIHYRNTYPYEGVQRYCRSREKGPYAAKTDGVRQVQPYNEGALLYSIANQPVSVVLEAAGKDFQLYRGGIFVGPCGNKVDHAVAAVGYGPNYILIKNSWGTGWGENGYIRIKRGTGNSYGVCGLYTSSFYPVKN
Chain of caspase 3 (P42574 whole entry, the tested form may be a part): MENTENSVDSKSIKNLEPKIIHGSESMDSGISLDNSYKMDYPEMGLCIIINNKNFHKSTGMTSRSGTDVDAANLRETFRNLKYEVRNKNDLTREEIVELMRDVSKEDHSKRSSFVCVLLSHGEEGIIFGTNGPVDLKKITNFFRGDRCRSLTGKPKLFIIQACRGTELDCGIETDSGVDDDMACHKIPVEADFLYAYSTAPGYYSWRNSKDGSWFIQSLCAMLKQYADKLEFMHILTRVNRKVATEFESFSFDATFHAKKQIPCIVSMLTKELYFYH

## recombinant RgpB propeptide (thrombin-cleaved) (from UniProt P95493 25-222) (domain or fragment)
Caspase 3
  % proteolytic activity of caspase 3 (60 Units) with RgpB-PP at 100 mg/L, substrate Ac-DEVD-pNa (200 µM) (% proteolytic activity): 133
[1]
  % proteolytic activity of Kgp (0.0075 mg/mL) with RgpB-PP at 50 mg/L, substrate GPKNA (% proteolytic activity): 118
papain
  % proteolytic activity of papain (2.75 mg/L) with RgpB-PP at 100 mg/L, substrate BapNA (% proteolytic activity): 103

B1: recombinant RgpB propeptide (thrombin-cleaved) (domain or fragment)
chain: QPAERGRNPQVRLLSAEQSMSKVQFRMDNLQFTGVQTSKGVAQVPTFTEGVNISEKGTPILPILSRSLAVSETRAMKVEVVSSKFIEKKDVLIAPSKGVISRAENPDQIPYVYGQSYNEDKFFPGEIATLSDPFILRDVRGQVVNFAPLQYNPVTKTLRIYTEIVVAVSETAEAGQNTISLVKNSTFTGFEDIYKSVFMNYEATR
modifications: Text prints 25-222, but the reverse primer encodes FMNYEATR-stop (end at 229), and 209 aa = GSHM vector remnant + 205 residues (25-229). The GSHM remnant left after thrombin cleavage is omitted. …
[2]
  Ki: 0.012 µM
